One experiment concerns the target T1, human CD138 (human, UniProt P18827 23-310).
T1 construct: whole, on cells; Endogenous antigen on MM.1S, MDA-MB-468 and SK-BR-3 cells; also called syndecan-1
T1 sequence (looked up): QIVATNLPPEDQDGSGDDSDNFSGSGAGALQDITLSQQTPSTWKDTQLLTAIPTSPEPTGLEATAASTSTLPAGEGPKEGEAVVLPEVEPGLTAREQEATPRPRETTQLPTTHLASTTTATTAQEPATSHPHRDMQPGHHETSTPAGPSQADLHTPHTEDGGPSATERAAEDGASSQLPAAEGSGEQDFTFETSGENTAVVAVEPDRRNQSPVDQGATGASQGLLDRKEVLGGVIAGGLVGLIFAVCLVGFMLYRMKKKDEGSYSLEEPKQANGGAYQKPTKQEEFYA
The experiment in a line: flow cytometry on MDA-MB-468 and SK-BR-3 cells expressing CD138. On the procedure:
Human triple negative breast cancer (TNBC) cells (MDA-MB-468) and human HER2/neu positive breast cancer cells (SK-BR-3) expressing CD138 were incubated with either IgE isotype control (non-targeting control) or anti-CD138 IgE. Antibody binding was detected using a PE-conjugated goat F(ab′)₂ anti-human κ antibody. Grey filled histograms represent cells incubated with secondary antibody only (“no antibody”). Empty black line histograms represent cells incubated with primary antibodies (IgE isotype control or anti-CD138 IgE).
(§1) Antigen binding of the anti-CD38 IgE, anti-CD138 IgE, and anti-TfR1 IgE antibodies was studied by flow cytometry using the human multiple myeloma (MM) cell line MM.1S purchased from the American Type Culture Collection (ATCC, Manassas, VA, USA; ATCC® CRL-2974™). […] Binding to FcεRI was also assessed by flow cytometry using the rat basophilic leukemia cell line RBL SX-38 expressing human FcεRI¹¹³ kindly provided by Dr. Jean-Pierre Kinet (Beth Israel Deaconess Medical Center, Boston, MA, USA). […] Samples were analyzed on a BD LSRII analytical flow cytometer (BD Biosciences, San Jose, CA, USA) and 10,000 events were collected. […]
Background: A flow cytometer gives signals particle by particle.

The next experiment deals with T2, human FcεRI (human, UniProt P12319 26-257).
T2 construct: whole, on cells; Multi-subunit receptor; In the PCA assay it is the humanized FcεRI of transgenic huFcεRI mice; also called huFcεRI
T2 sequence (looked up): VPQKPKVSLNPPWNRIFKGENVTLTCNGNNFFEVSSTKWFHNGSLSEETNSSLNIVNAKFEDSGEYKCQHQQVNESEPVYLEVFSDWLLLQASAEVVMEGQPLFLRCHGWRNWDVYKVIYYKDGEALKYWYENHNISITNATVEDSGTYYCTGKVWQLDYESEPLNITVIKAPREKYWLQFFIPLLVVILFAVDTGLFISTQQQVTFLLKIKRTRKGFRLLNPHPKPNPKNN
The experiment in a line: flow cytometry on RBL SX-38 cells expressing human FcεRI. On the procedure:
Human MM cells (MM.1S) expressing CD138 were incubated with either IgE isotype control (non-targeting control), anti-CD138 IgG1, or anti-CD138 IgE. The rat basophilic leukemia cells RBL SX-38 expressing human FcεRI were incubated with either IgE isotype control, anti-CD138 IgG1, or anti-CD138 IgE. Antibody binding was detected using a PE-conjugated goat F(ab′)₂ anti-human κ antibody. Grey line histograms represent cells incubated with secondary antibody only (“no antibody”). Black line histograms represent cells incubated with primary antibodies (IgE isotype control, anti-CD138 IgG1, or anti-CD138 IgE).
Human MM cells (MM.1S) expressing TfR1 were incubated with either IgE isotype control (non-targeting control) or anti-TfR1 IgE. […] Antibody binding was detected using a PE-conjugated mouse IgG1 anti-human IgE antibody. […]
Antigen binding of the anti-CD38 IgE, anti-CD138 IgE, and anti-TfR1 IgE antibodies was studied by flow cytometry using the human multiple myeloma (MM) cell line MM.1S purchased from the American Type Culture Collection (ATCC, Manassas, VA, USA; ATCC® CRL-2974™). […] Binding to FcεRI was also assessed by flow cytometry using the rat basophilic leukemia cell line RBL SX-38 expressing human FcεRI¹¹³ kindly provided by Dr. Jean-Pierre Kinet (Beth Israel Deaconess Medical Center, Boston, MA, USA). […]

Experiment [1] deals with T3, human transferrin receptor 1 (TfR1) (human, UniProt P02786 1-760).
T3 construct: whole, on cells; Endogenous antigen on MM.1S cells; also called transferrin receptor protein 1; CD71
The experiment in a line: flow cytometry on MM.1S cells expressing TfR1. On the procedure:
Human MM cells (MM.1S) expressing TfR1 were incubated with either IgE isotype control (non-targeting control) or anti-TfR1 IgE. The rat basophilic leukemia cells RBL SX-38 expressing human FcεRI were incubated with either IgE isotype control or anti-TfR1 IgE. Antibody binding was detected using a PE-conjugated mouse IgG1 anti-human IgE antibody. Grey filled histograms represent cells incubated with secondary antibody only (“no antibody”). Empty black line histograms represent cells incubated with primary antibodies (IgE isotype control or anti-TfR1 IgE).
as §1

The values that follow come from US20240101695A1 (University of California, published 2024).

T3 sequence (P02786 whole entry): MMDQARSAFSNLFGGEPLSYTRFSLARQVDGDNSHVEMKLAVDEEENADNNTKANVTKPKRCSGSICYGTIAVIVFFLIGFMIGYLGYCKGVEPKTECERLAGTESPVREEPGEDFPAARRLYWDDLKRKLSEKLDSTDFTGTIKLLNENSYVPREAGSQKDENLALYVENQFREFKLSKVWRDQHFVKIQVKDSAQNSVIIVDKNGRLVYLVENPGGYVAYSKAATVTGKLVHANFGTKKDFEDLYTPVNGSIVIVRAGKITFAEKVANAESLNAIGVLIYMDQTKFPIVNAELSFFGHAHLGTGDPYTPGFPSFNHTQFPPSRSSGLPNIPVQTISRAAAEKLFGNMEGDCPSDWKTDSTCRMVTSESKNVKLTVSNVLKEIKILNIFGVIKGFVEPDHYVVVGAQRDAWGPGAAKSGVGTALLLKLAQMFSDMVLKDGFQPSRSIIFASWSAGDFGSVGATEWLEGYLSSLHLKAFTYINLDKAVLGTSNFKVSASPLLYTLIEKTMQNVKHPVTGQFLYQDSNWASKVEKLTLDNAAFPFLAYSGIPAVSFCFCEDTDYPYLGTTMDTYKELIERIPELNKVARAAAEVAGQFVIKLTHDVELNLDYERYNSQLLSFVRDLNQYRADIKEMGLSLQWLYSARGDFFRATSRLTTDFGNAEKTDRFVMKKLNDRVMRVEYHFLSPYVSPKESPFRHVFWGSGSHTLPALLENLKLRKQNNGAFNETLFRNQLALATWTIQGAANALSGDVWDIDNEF

B1: anti-CD138 IgE (antibody)
heavy: QVQLQQSGSELMMPGASVKISCKATGYTFSNYWIEWVKQRPGHGLEWIGEILPGTGRTIYNEKFKGKATFTADISSNTVQMQLSSLTSEDSAVYYCARRDYYGNFYYAMDYWGQGTSVTVSSASTQSPSVFPLTRCCKNIPSNATSVTLGCLATGYFPEPVMVTWDTGSLNGTTMTLPATTLTLSGHYATISLLTVSGAWAKQMFTCRVAHTPSSTDWVDNKTFSVCSRDFTPPTVKILQSSCDGGGHFPPTIQLLCLVSGYTPGTINITWLEDGQVMDVDLSTASTTQEGELASTQSELTLSQKHWLSDRTYTCQVTYQGHTFEDSTKKCADSNPRGVSAYLSRPSPFDLFIRKSPTITCLVVDLAPSKGTVNLTWSRASGKPVNHSTRKEEKQRNGTLTVTSTLPVGTRDWIEGETYQCRVTHPHLPRALMRSTTKTSGPRAAPEVYAFATPEWPGSRDKRTLACLIQNFMPEDISVQWLHNEVQLPDARHSTTQPRKTKGSGFFVFSRLEVTRAEWEQKDEFICRAVHEAASPSQTVQRAVSVNPGK
light: DIQMTQSTSSLSASLGDRVTISCSASQGINNYLNWYQQKPDGTVELLIYYTSTLQSGVPSRFSGSGSGTDYSLTISNLEPEDIGTYYCQQYSKLPRTFGGGTKLEIKRTVAAPSVFIFPPSDEQLKSGTASVVCLLNNFYPREAKVQWKVDNALQSGNSQESVTEQDSKDSTYSLSSTLTLSKADYEKHKVYACEVTHQGLSSPVTKSFNRGEC
notes: Mouse/human chimeric IgE; also called CD138-Targeted Antibody; anti-CD138 IgE antibody
As for B1, the binding result in the experiment with human CD138 and in the experiment with human FcεRI was “binds” each time.

B2: anti-TfR1 IgE (antibody)
heavy: EVQLQQSGPELVKPGASMKISCKASGYSFTGYTMNWVKQSHGENLEWIGRINPHNGGTDYNQKFKDKAPLTVDKSSNTAYMELLSLTSGDSAVYYCARGYYYYSLDYWGQGTSVTVSSASTQSPSVFPLTRCCKNIPSNATSVTLGCLATGYFPEPVMVTWDTGSLNGTTMTLPATTLTLSGHYATISLLTVSGAWAKQMFTCRVAHTPSSTDWVDNKTFSVCSRDFTPPTVKILQSSCDGGGHFPPTIQLLCLVSGYTPGTINITWLEDGQVMDVDLSTASTTQEGELASTQSELTLSQKHWLSDRTYTCQVTYQGHTFEDSTKKCADSNPRGVSAYLSRPSPFDLFIRKSPTITCLVVDLAPSKGTVNLTWSRASGKPVNHSTRKEEKQRNGTLTVTSTLPVGTRDWIEGETYQCRVTHPHLPRALMRSTTKTSGPRAAPEVYAFATPEWPGSRDKRTLACLIQNFMPEDISVQWLHNEVQLPDARHSTTQPRKTKGSGFFVFSRLEVTRAEWEQKDEFICRAVHEAASPSQTVQRAVSVNPGK
light: QIVLTQSPAIMSVSPGEKVTMTCSASSSIRYIHWYQQRPGTSPKRWIYDTSNLASGVPARFSGSGSGTSYSLTISSMEAEDAATYYCHQRNSYPWTFGGGTRLEIRRTVAAPSVFIFPPSDEQLKSGTASVVCLLNNFYPREAKVQWKVDNALQSGNSQESVTEQDSKDSTYSLSSTLTLSKADYEKHKVYACEVTHQGLSSPVTKSFNRGEC
notes: Mouse/human chimeric IgE; also called TfR1-Targeted Antibody; anti-TfR1 IgE antibody
For the molecule B2, the binding result (with human FcεRI; in experiment [1]) was “binds” each time.
